Source: patent US20170327585A1 (PHARMABCINE, published 2017)
Residue numbers refer to the chain shown, from its start.

B1: PD10 human IgG (antibody, V domains shown)
VH: QVQLVESGGGLVQPGGSLRLSCAASGFTFDEHAMHWVRQAPGKGLQWVSGINWNSGKTGYADSVKGRFTISRDNSKNSLYLQMNSLRAEDTAVYYCTRPGEDTGGGFDIWGQGTMITVSS
VL: NFMLTQPASVSGSPGQSITISCTGSSSDVGGYNYVSWYQQHPGKAPQLIIYDVTKRPSGVSNRFSGSKSGNSASLTISGLQAEDEADYYCSSYSSSTFYVFGTGTKVTVLG
notes: Whole human IgG
B2: PD27 human IgG (antibody, V domains shown)
VH: B1 VH
VL: SYELTQPLSVSVSPGQTARITCSGDVLADHYSYWYQQKPGQAPVLVMYKDSERPSGIPERFSGSSSGTTVTLTISGVQAEDEADYYCQSVDSSDTSVVFGGGTKLTVLG
notes: Whole human IgG
B3: PA430 human IgG (antibody, V domains shown)
VH: QMQLVESGGGVVQPGKSLRLSCAASGFTFSYHAMHWVRQAPGKGLEWLAAMSHDGTETSYADSVKGRITISRDNSKSALYLQMNSLRAEDTAVYYCTAEGLRSNGGAFETWGRGTMITVSS
VL: B2 VL with L8P, S13A, A28P, D29K, S32A, M47I, S62T, T69K, Q78R
notes: Converted from the phage antibody to whole human IgG with vectors pIgGHD-6A6Hvy and pIgGLD-6A6Lgt and expressed in HEK293T
B4: PD52 human IgG (antibody, V domains shown)
VH: QMQLVQSGGGVVQPGGSLRLSCVGSGFSFDDYAMHWVRQAPGKGLEWVSGISWNSGAIGYADSVKGRFTVSRDNSKNSLYLQMNSLRAEDTAVYYCATASRGLGDAFDIWGQGTMVTVSS
VL: B2 VL with L8P, A28P, D29K, S32A, M47I, S51T, S92N
notes: Whole human IgG

Molecular target: BSA (UniProt P02769 25-607)
Sequence (P02769 25-607 limits assumed): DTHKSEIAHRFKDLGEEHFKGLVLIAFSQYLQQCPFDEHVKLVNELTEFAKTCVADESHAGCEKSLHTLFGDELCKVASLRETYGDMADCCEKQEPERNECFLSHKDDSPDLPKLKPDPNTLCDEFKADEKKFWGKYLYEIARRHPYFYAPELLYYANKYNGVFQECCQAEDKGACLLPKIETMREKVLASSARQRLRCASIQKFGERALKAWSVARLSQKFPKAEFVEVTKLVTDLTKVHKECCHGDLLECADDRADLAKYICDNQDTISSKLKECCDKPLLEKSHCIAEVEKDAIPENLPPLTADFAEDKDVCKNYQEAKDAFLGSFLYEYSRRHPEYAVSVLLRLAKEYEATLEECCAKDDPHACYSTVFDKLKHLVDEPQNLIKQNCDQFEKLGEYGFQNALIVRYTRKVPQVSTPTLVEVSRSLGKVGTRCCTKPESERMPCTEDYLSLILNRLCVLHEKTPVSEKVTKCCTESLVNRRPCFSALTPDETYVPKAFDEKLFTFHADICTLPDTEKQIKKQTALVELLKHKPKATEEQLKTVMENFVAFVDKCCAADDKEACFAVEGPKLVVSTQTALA
Experiment: ELISA, coated BSA, anti-human IgG HRP
Description: ELISAs were performed to identify antigen-specific binding capacity of clones converted to IgG EGFRvIII peptide, […] peptide and BSA were coated on […] 96 well plates at 37° C. for 2 hours. Thereafter, after blocking the uncoated portion with 3% skim milk/0.05% PBST, 1 μg/ml IgG was added to the plate and reacted at 37° C. for 1 hour. Anti-human IgG HRP (pierce, USA) was diluted in 1:3000 and reacted for 1 hour. Next, the TMB substrate (BD, USA) was treated for 10 minutes for color development, and the reaction was stopped by treating with 2N H2SO4. As to the color developed ELISA, the absorbance was measured at 450 nm-650 nm using a Sunrise ELISA reader (TECAN, Switzerland).

| Binder | binding result |
| --- | --- |
| B1 | no binding (tested: 1 µg/ml IgG) |
| B2 | no binding (tested: 1 µg/ml IgG) |
| B3 | no binding (tested: 1 µg/ml IgG) |
| B4 | no binding (tested: 1 µg/ml IgG) |
